Measured values reported in article PMC9876797, “Structures of the holo CRISPR RNA-guided transposon integration complex” (Nature, 2022).
“And” between values parts separate entries of the source, which are not always exact repeats. Equal entries are not always repeated. Each block holds one compound with its values, some of them ahead of it.

Experiments:
[1] = molecular target: TnsC (ShCAST AAA+ regulator) (Scytonema hofmannii)
Target sequence in this assay (A0A8J0PCL3 entry or part of it): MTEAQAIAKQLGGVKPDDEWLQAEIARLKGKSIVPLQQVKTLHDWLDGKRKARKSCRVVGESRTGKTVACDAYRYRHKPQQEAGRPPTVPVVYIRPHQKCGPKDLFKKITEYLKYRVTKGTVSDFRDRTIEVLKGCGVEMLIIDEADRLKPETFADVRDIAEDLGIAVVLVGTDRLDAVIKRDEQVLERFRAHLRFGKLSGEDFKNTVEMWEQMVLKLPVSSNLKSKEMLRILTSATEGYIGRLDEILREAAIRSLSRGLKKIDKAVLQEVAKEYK

[2] = molecular target: TnsC (ShCAST AAA+ regulator) (Scytonema hofmannii); assay: cryo-EM structure; ShCAST transpososome assembled stepwise on streptavidin beads through desthiobiotinylated target-pot DNA (Cas12k-sgRNA, S15, TniQ, TnsC, 1 mM ATP, then TnsB with donor-pot DNA), 37 °C, 20 mM HEPES pH 7.5, 250 mM KCl, 15 mM MgCl2, eluted with biotin; major (12 TnsC) and minor (13 TnsC) configurations from one data set
[3] = molecular target: TnsB (ShCAST transposase), wild type (Scytonema hofmannii); assay: as above
[4] = molecular target: T1, ShCAST transpososome (TnsC in complex with TnsB, TniQ, Cas12k and S15) (Scytonema hofmannii, UniProt A0A8J0PCL3); assay: cryo-EM structure; type: binding; settings: ATP with Mg2+ in all TnsC protomers; 1 mM ATP, 15 mM MgCl2, pH 7.5; also minor configuration 8EA4
T1 construct: recombinant proteins from E. coli, TwinStrep-SUMO vectors; assembled on sgRNA and strand-transfer DNA; about 961 kDa; 12 TnsC (major) or 13 TnsC (minor); S15 from E. coli K-12 MG1655; with Transposase TnsB; TniQ family protein TniQ; CRISPR-associated effector Cas12k; Small ribosomal subunit protein uS15 (Escherichia coli K-12 MG1655)
T1 sequence (A0A8J0PCL3 entry or part of it): as above
T1 sequence (A0A979HMQ2 entry or part of it, further chain): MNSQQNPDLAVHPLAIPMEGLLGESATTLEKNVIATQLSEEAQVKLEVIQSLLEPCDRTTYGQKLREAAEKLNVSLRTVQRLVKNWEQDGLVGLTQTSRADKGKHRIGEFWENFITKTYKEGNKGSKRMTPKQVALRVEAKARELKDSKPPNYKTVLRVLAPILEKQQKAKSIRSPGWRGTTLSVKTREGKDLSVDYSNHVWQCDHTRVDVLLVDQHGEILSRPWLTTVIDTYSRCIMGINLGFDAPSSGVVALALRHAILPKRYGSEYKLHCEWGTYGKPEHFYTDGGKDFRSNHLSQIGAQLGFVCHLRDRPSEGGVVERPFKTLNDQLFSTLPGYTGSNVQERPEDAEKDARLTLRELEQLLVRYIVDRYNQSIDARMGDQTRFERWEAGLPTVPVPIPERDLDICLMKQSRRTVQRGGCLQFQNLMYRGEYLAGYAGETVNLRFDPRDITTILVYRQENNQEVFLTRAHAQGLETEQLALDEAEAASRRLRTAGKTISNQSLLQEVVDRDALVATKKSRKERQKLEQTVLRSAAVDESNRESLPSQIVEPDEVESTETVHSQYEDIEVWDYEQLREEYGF
T1 sequence (A0A8J0PCL5 entry or part of it, further chain): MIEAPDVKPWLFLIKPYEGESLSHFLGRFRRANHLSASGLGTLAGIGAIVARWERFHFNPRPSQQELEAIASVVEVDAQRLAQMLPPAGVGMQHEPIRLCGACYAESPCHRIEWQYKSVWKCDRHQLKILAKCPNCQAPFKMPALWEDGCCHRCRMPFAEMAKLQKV
T1 sequence (A0A8M0FGU0 entry or part of it, further chain): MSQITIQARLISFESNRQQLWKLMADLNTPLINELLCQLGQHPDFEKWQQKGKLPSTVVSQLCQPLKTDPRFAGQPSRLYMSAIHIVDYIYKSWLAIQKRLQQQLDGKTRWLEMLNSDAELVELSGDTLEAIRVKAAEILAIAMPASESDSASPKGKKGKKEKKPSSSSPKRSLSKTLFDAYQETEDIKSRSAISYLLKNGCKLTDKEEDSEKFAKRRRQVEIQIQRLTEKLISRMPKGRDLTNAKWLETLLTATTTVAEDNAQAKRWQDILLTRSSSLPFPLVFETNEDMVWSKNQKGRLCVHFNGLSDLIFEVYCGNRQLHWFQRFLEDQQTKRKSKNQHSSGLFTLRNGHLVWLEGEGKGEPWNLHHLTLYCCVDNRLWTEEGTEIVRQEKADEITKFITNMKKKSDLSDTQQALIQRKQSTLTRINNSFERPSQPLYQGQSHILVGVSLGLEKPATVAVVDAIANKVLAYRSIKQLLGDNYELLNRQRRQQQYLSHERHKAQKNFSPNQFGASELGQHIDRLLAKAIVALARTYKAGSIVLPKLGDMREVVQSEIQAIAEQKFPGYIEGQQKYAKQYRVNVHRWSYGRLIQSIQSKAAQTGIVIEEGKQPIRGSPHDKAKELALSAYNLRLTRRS

Compound: TnsC (ShCAST AAA+ regulator) (natural protein)
stoichiometry N [2]: 12 and 13

Compound: Nc1ncnc2c1ncn2[C@@H]1O[C@H](COP(=O)(O)OP(=O)(O)OP(=O)(O)O)[C@@H](O)[C@H]1O [ATP]
cryo-EM structure [4]: This improved map demonstrates that ATP is bound to all protomers

The remaining lines, values ahead:

on-target percentage of in vitro transposition (Illumina sequencing), in the absence of S15 [1]: < 6%
Compound: TnsB Y439A (enzyme)

stoichiometry N [3]: 4 | on-target percentage of in vitro transposition (Illumina sequencing), in the absence of S15 [1]: 69% | on-target percentage of in vitro transposition (Illumina sequencing), with S15 [1]: 99%
Compound: TnsB (ShCAST transposase), wild type (enzyme)

on-target percentage of in vitro transposition (Illumina sequencing), in the absence of S15 [1]: < 6%
Compound: TnsB R432A (enzyme)
